Measurements taken from patent publication US20160159928A1.
Where “and” joins values, the source holds several entries; their conditions need not be identical. Equal entries are not always repeated.

Columns and labels:
[1] = biological target: CXCR1 (UniProt P25024); experiment: cell-based or functional assay
[2] = biological target: Kv1.3 (human) (UniProt P22001); experiment: cell-based or functional assay
Chain of Kv1.3 (human) (P22001 whole entry): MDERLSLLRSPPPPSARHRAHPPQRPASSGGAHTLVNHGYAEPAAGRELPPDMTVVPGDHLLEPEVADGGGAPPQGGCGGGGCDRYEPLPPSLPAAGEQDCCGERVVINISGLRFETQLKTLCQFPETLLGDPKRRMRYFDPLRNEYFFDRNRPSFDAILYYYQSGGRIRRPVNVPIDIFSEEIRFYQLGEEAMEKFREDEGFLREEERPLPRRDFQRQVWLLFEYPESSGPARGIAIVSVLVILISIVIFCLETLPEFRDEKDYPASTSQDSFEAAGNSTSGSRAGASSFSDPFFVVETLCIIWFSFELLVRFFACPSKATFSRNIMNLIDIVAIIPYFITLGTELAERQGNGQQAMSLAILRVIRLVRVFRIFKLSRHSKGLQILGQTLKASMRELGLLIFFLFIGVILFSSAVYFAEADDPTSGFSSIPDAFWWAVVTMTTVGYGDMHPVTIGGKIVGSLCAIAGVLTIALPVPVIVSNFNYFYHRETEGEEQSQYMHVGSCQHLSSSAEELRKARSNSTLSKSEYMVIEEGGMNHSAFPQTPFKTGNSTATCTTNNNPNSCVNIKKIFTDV

Chain of CXCR1 (P25024 whole entry): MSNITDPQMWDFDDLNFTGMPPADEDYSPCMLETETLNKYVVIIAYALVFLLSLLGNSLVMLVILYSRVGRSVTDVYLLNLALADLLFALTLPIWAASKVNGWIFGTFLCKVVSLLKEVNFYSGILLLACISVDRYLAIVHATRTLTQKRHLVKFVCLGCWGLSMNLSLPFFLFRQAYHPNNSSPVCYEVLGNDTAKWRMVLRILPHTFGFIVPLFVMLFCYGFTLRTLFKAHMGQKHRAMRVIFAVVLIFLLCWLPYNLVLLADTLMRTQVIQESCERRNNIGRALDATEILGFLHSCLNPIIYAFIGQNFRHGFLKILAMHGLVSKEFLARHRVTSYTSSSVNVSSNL

B1: VH4-34+CDR3-IL8_CDR1-Cow_Q5RQ6E with VL1-51 S2A, T5N, P8S, A12G, A13S, P14L, K46R, L47T, D51G, N52D, N53T (antibody)
VH: QVQLREWGAGLLKPSETLSLTCTASGFSLSDKAVGWIRQPPGKGLEWIGEINHSGSTNYNPSLKSRVTISVDTSKNQFSLKLSSVTAADTAVYYCTSVHQETKKYQSPRSAKELRCQCIKTYSKPFHPKFIKELRVIESGPHCANTEIIVKLSDGRELCLDPKENWVQRVVEKFLKRAENSGSGSYTYNYEWHVDVWGQGLLVTVSS
light: QAVLNQPSSVSGSLGQKVTISCSGSSSNIGNNYVSWYQQLPGTAPRTLIYGDTKRPSGIPDRFSGSKSGTSATLGITGLQTGDEADYYCASAEDSSSNAVFGSGTTLTVLGQPKAAPSVTLFPPSSEELQANKATLVCLISDFYPGAVTVAWKADSSPVKAGVETTTPSKQSNNKYAASSYLSLTPEQWKSHRSYSCQVTHEGSTVEKTVAPTECS
- luminescence at 0.1 nM IL-8 domains [1]: 4180
- luminescence at 0.4 nM IL-8 domains [1]: 5190
- luminescence at 0.5 nM IL-8 domains [1]: 6620
- luminescence at 1.6 nM IL-8 domains [1]: 6410
- luminescence at 2.2 nM IL-8 domains [1]: 13500
- luminescence at 6.25 nM IL-8 domains [1]: 10500
- luminescence at 9.9 nM IL-8 domains [1]: 21900
- luminescence at 25 nM IL-8 domains [1]: 14600
- luminescence at 44 nM IL-8 domains [1]: 24000
- luminescence at 100 nM IL-8 domains [1]: 18000
- luminescence at 200 nM IL-8 domains [1]: 25000

B2: VH4-34+CDR3-IL8_CDR1-G31DY32K_CDR2-E50S_Q5RQ6E with VL1-51 S2A, T5N, P8S, A12G, A13S, P14L, K46R, L47T, D51G, N52D, N53T (antibody)
VH: QVQLREWGAGLLKPSETLSLTCAVYGGSFSDKYWSWIRQPPGKGLEWIGSINHSGSTNYNPSLKSRVTISVDTSKNQFSLKLSSVTAADTAVYYCTSVHQETKKYQSPRSAKELRCQCIKTYSKPFHPKFIKELRVIESGPHCANTEIIVKLSDGRELCLDPKENWVQRVVEKFLKRAENSGSGSYTYNYEWHVDVWGQGLLVTVSS
light: QAVLNQPSSVSGSLGQKVTISCSGSSSNIGNNYVSWYQQLPGTAPRTLIYGDTKRPSGIPDRFSGSKSGTSATLGITGLQTGDEADYYCASAEDSSSNAVFGSGTTLTVLGQPKAAPSVTLFPPSSEELQANKATLVCLISDFYPGAVTVAWKADSSPVKAGVETTTPSKQSNNKYAASSYLSLTPEQWKSHRSYSCQVTHEGSTVEKTVAPTECS
- luminescence at 0.1 nM IL-8 domains [1]: 4060
- luminescence at 0.4 nM IL-8 domains [1]: 6190
- luminescence at 0.5 nM IL-8 domains [1]: 5300
- luminescence at 1.6 nM IL-8 domains [1]: 8160
- luminescence at 2.2 nM IL-8 domains [1]: 10300
- luminescence at 6.25 nM IL-8 domains [1]: 13500
- luminescence at 9.9 nM IL-8 domains [1]: 17100
- luminescence at 25 nM IL-8 domains [1]: 21000
- luminescence at 44 nM IL-8 domains [1]: 23300
- luminescence at 100 nM IL-8 domains [1]: 25900
- luminescence at 200 nM IL-8 domains [1]: 22300

B3: VH4-34+CDR3-IL8_CDR1-G31DY32K_CDR2-E50S with VL1-51 S2A, T5N, P8S, A12G, A13S, P14L, K46R, L47T, D51G, N52D, N53T (antibody)
VH: QVQLQQWGAGLLKPSETLSLTCAVYGGSFSDKYWSWIRQPPGKGLEWIGSINHSGSTNYNPSLKSRVTISVDTSKNQFSLKLSSVTAADTAVYYCTSVHQETKKYQSPRSAKELRCQCIKTYSKPFHPKFIKELRVIESGPHCANTEIIVKLSDGRELCLDPKENWVQRVVEKFLKRAENSGSGSYTYNYEWHVDVWGQGLLVTVSSAS
light: QAVLNQPSSVSGSLGQKVTISCSGSSSNIGNNYVSWYQQLPGTAPRTLIYGDTKRPSGIPDRFSGSKSGTSATLGITGLQTGDEADYYCASAEDSSSNAVFGSGTTLTVLGQPKAAPSVTLFPPSSEELQANKATLVCLISDFYPGAVTVAWKADSSPVKAGVETTTPSKQSNNKYAASSYLSLTPEQWKSHRSYSCQVTHEGSTVEKTVAPTECS
- luminescence at 0.4 nM IL-8 domains [1]: 5420
- luminescence at 1.6 nM IL-8 domains [1]: 5710
- luminescence at 6.25 nM IL-8 domains [1]: 7160
- luminescence at 25 nM IL-8 domains [1]: 11200
- luminescence at 100 nM IL-8 domains [1]: 15500

B4: VH4-34+CDR3-IL8_CDR1-Cow_CDR2-Cow with VL1-51 S2A, T5N, P8S, A12G, A13S, P14L, K46R, L47T, D51G, N52D, N53T (antibody)
VH: QVQLQQWGAGLLKPSETLSLTCTASGFSLSDKAVGWIRQPPGKGLEWLGSIDTGGNTGYNPSLKSRVTISVDTSKNQFSLKLSSVTAADTAVYYCTSVHQETKKYQSPRSAKELRCQCIKTYSKPFHPKFIKELRVIESGPHCANTEIIVKLSDGRELCLDPKENWVQRVVEKFLKRAENSGSGSYTYNYEWHVDVWGQGLLVTVSSAS
light: QAVLNQPSSVSGSLGQKVTISCSGSSSNIGNNYVSWYQQLPGTAPRTLIYGDTKRPSGIPDRFSGSKSGTSATLGITGLQTGDEADYYCASAEDSSSNAVFGSGTTLTVLGQPKAAPSVTLFPPSSEELQANKATLVCLISDFYPGAVTVAWKADSSPVKAGVETTTPSKQSNNKYAASSYLSLTPEQWKSHRSYSCQVTHEGSTVEKTVAPTECS
- luminescence at 0.4 nM IL-8 domains [1]: 6310
- luminescence at 1.6 nM IL-8 domains [1]: 7400
- luminescence at 6.25 nM IL-8 domains [1]: 10200
- luminescence at 25 nM IL-8 domains [1]: 15400
- luminescence at 100 nM IL-8 domains [1]: 21600

B5: VH4-34 MutE 3xGGS NoKnob IgG (antibody, V domains shown)
VH: QVQLREWGAGLLKPSETLSLTCAVYGGSFSDKYWSWIRQPPGKGLEWIGSINHSGSTNYNPSLKSRVTISVDTSKNQFSLKLSSVTAADTAVYYCTSVHQETKKYQSGGSGGSGGSSYTYNYEWHVDVWGQGLLVTVSS
VL: QAVLNQPSSVSGSLGQKVTISCSGSSSNIGNNYVSWYQQLPGTAPRTLIYGDTKRPSGIPDRFSGSKSGTSATLGITGLQTGDEADYYCASAEDSSSNAVFGSGTTLTVLG
- IL-2 ELISA (A450), Donor 1, [IgG] 0.01 nM [2]: 2.18 A450 and 2.23 A450
- IL-2 ELISA (A450), Donor 1, [IgG] 0.75 nM [2]: 2.19 A450 and 2.17 A450
- IL-2 ELISA (A450), Donor 1, [IgG] 68 nM [2]: 1.42 A450 and 1.31 A450
- IL-2 ELISA (A450), Donor 2, [IgG] 0.01 nM [2]: 1.75 A450
- IL-2 ELISA (A450), Donor 2, [IgG] 0.75 nM [2]: 1.61 A450 and 1.42 A450
- IL-2 ELISA (A450), Donor 2, [IgG] 68 nM [2]: 1.32 A450 and 0.934 A450
- IL-17 ELISA (A450), Donor 1, 0.00 nM IgG [2]: 0 A450
- IL-17 ELISA (A450), Donor 1, 0.02 nM IgG [2]: 1.35 A450
- IL-17 ELISA (A450), Donor 1, 0.08 nM IgG [2]: 1.34 A450
- IL-17 ELISA (A450), Donor 1, 0.34 nM IgG [2]: 1.27 A450
- IL-17 ELISA (A450), Donor 1, 1.54 nM IgG [2]: 1.18 A450
- IL-17 ELISA (A450), Donor 1, 6.9 nM IgG [2]: 0.828 A450
- IL-17 ELISA (A450), Donor 1, 31 nM IgG [2]: 0.453 A450
- IL-17 ELISA (A450), Donor 1, 140 nM IgG [2]: 0.247 A450
- IL-17 ELISA (A450), Donor 2, 0.00 nM IgG [2]: 0 A450
- IL-17 ELISA (A450), Donor 2, 0.02 nM IgG [2]: 0.959 A450
- IL-17 ELISA (A450), Donor 2, 0.08 nM IgG [2]: 0.777 A450
- IL-17 ELISA (A450), Donor 2, 0.34 nM IgG [2]: 0.82 A450
- IL-17 ELISA (A450), Donor 2, 1.54 nM IgG [2]: 0.785 A450
- IL-17 ELISA (A450), Donor 2, 6.9 nM IgG [2]: 0.641 A450
- IL-17 ELISA (A450), Donor 2, 31 nM IgG [2]: 0.364 A450
- IL-17 ELISA (A450), Donor 2, 140 nM IgG [2]: 0.096 A450
- TNF-α ELISA (A450), Donor 1, 0.00 nM IgG [2]: 0 A450
- TNF-α ELISA (A450), Donor 1, 0.02 nM IgG [2]: 1.52 A450
- TNF-α ELISA (A450), Donor 1, 0.08 nM IgG [2]: 1.45 A450
- TNF-α ELISA (A450), Donor 1, 0.34 nM IgG [2]: 1.42 A450
- TNF-α ELISA (A450), Donor 1, 1.54 nM IgG [2]: 1.33 A450
- TNF-α ELISA (A450), Donor 1, 6.9 nM IgG [2]: 1.1 A450
- TNF-α ELISA (A450), Donor 1, 31 nM IgG [2]: 0.808 A450
- TNF-α ELISA (A450), Donor 1, 140 nM IgG [2]: 0.402 A450
- TNF-α ELISA (A450), Donor 1, [IgG] 0.01 nM [2]: 1.91 A450 and 1.88 A450
- TNF-α ELISA (A450), Donor 1, [IgG] 0.75 nM [2]: 1.76 A450 and 1.67 A450
- TNF-α ELISA (A450), Donor 1, [IgG] 68 nM [2]: 1.12 A450 and 1.08 A450
- TNF-α ELISA (A450), Donor 2, 0.00 nM IgG [2]: 0 A450
- TNF-α ELISA (A450), Donor 2, 0.02 nM IgG [2]: 1.56 A450
- TNF-α ELISA (A450), Donor 2, 0.08 nM IgG [2]: 1.42 A450
- TNF-α ELISA (A450), Donor 2, 0.34 nM IgG [2]: 1.55 A450
- TNF-α ELISA (A450), Donor 2, 1.54 nM IgG [2]: 1.29 A450
- TNF-α ELISA (A450), Donor 2, 6.9 nM IgG [2]: 0.916 A450
- TNF-α ELISA (A450), Donor 2, 31 nM IgG [2]: 0.438 A450
- TNF-α ELISA (A450), Donor 2, 140 nM IgG [2]: 0.167 A450
- TNF-α ELISA (A450), Donor 2, [IgG] 0.01 nM [2]: 2.23 A450 and 2.1 A450
- TNF-α ELISA (A450), Donor 2, [IgG] 0.75 nM [2]: 2.1 A450 and 1.88 A450
- TNF-α ELISA (A450), Donor 2, [IgG] 68 nM [2]: 1.8 A450 and 1.32 A450

B6: VH4-34 MutE 3xGGS NoKnob (antibody, V domains shown)
VH: QVQLREWGAGLLKPSETLSLTCAVYGGSFSDKYWSWIRQPPGKGLEWIGSINHSGSTNYNPSLKSRVTISVDTSKNQFSLKLSSVTAADTAVYYCTSVHQETKKYQSGGSGGSGGSSYTYNYEWHVDVWGQGLLVTVSS
VL: QAVLNQPSSVSGSLGQKVTISCSGSSSNIGNNYVSWYQQLPGTAPRTLIYGDTKRPSGIPDRFSGSKSGTSATLGITGLQTGDEADYYCASAEDSSSNAVFGSGTTLTVLG
- IL-2 ELISA (A450); Donor 1; 0.04 nM IgG [2]: 0.333 A450
- IL-2 ELISA (A450); Donor 1; 0.6 nM IgG [2]: 0.356 A450
- IL-2 ELISA (A450); Donor 1; 9.4 nM IgG [2]: 0.371 A450
- IL-2 ELISA (A450); Donor 1; 150 nM IgG [2]: 0.232 A450
- IL-2 ELISA (A450); Donor 2; 0.04 nM IgG [2]: 0.976 A450
- IL-2 ELISA (A450); Donor 2; 0.6 nM IgG [2]: 0.795 A450
- IL-2 ELISA (A450); Donor 2; 9.4 nM IgG [2]: 0.808 A450
- IL-2 ELISA (A450); Donor 2; 150 nM IgG [2]: 0.475 A450
- TNF-α ELISA (A450); Donor 1; 0.04 nM IgG [2]: 0.76 A450
- TNF-α ELISA (A450); Donor 1; 0.6 nM IgG [2]: 0.813 A450
- TNF-α ELISA (A450); Donor 1; 9.4 nM IgG [2]: 0.821 A450
- TNF-α ELISA (A450); Donor 1; 150 nM IgG [2]: 0.599 A450
- TNF-α ELISA (A450); Donor 2; 0.04 nM IgG [2]: 0.736 A450
- TNF-α ELISA (A450); Donor 2; 0.6 nM IgG [2]: 0.631 A450
- TNF-α ELISA (A450); Donor 2; 9.4 nM IgG [2]: 0.622 A450
- TNF-α ELISA (A450); Donor 2; 150 nM IgG [2]: 0.366 A450
